Test results as given in paper PMC11153153, “Membraneless channels sieve cations in ammonia-oxidizing marine archaea” (Nature, 2024).

Molecular target: the molecule itself
Assay: cryo-EM structure; electron cryotomography and subtomogram averaging of the S-layer on intact N. maritimus cells; 3.3 Å at the centre of the hexamer, about 4.5 Å at the periphery

B1: Nitrosopumilus maritimus S-layer protein Nmar_1547 (NmSLP) (natural protein)
chain: MAANANLFVSAENSQFDNYMSGPQVIEVVVIDSDINDTDEAKGEPDVTVNGKVLRMVQAVDGNWYGYFADRDQAQIADSTATTADSGLDFGVFCASSSGTAALGFSTTETDGIAIPITIANATATGNGTQTGSSSGGAITTTCAANTLDASTANGTINVVREAKDPVAASGSVSVGQIGLKNGTANSGPNWPFIQLYELNPTGNVVVQYNKGGGVQSTTLTFDTVDQFAELSLDRTVFPRVSQVHATITDLWLNIDPTDEDSWTFATNTKNTTSSFNVDTFYQVFDENGASGGSALTLRTTLSSLMCEDNCVLTLDVDAQSSGTPVVTIQDNGDSILTQLNASSNTNANNASAFGISTETAKLGTGSIPVTITEQGPNSGVFGTYDESDKSVLKITDNAKRGTSASLDYNETPQTILVGFSFASIDIQPVTDEWTSGQEIPVVIVDADQNKNSRADEDLDLNNPDVTLIPALRTGDPFTIDEGGTPSLIFTNGTNGDDSIFDTGAINNTSAGQVGNFTLNINVTRFSSATNITSTESIDTFSKRLISAQTANSSANFDVDFAIIDLGSATLETLKETVVDEDNTAVGFNFFNYDVRSLGADTVSIALLNTTGNILPWVNNDTRNVDKNNAILLVSNSTNSQAYVDLTNAVSDAVYGSTNTDSNVNIGFAMYFTGVGDLAAKEVIVMDFFSFGFTDDGVQSSERFANQIIRIEAEETGDNTSTFEGSLEYVMVNQINIQDAGTFSGITPIADDPSFIVIEDLTDEDAPRVNYNDLGADGVTTPVSDQEEAPSHSGVVSLNADSYKIADTVVITVEDLDLNVDSDLIDIFTVVSDNSKATDDAVGSATTQSLSFGELGRLLDVTFDDVIWSTPDGANNTATGNDSDTCSTELSNAGITDTGLGATGFTLVETGAATGVFVGDFQIPSFWCRVSDTTTTPYTYAGDEETTTGLDIEVNYVDFRDASGEIVEVGDSAGVRANTGSVSLDRTVYPVPFGTIADSSKAANAAPNGRSVFPIHATGITSTIDSTEELPTGDLTIHVRINDPDFDENPAGEDAMDQDNALKISVIRGSDSVVLGYAGASERTGKIDVGGNNGTISNIRSFGEMDEIAPDAGIFELDVNIKFTDGPASAQCNSHDTLYTALDGTTGKADTNRFDDGAASGQEYCILQGDILQVEYTDPADASGDANTVTDSATFDLRNGVLQSDKSVYIIGSDMILTLIEPDFDLDNDSAETYDLDLIEWDSDAATTTMGNKGVTGAAAAFDPEPTDFRETGDSTGIFQIVIEIPESLSNDKLERGEEIILEYTDWGPSGSDYVGDEDEDVNLTIYTSNFGATVELDQKVYSWTDKVYITIVAPDHNFDSDLVDEIGETDSDPIKVSTRGFDLDNYKLVETGTDTGIFTGEVILTGFTAHDADGDGNTGDATGTTSGSGPTDGLLATDDDDGLTVSFEFSEDETIVGSALIRWNIGEVQWLEASYPASGTGVVRVIDPDMNLDPEAVDNFEVDVWSDSDAGGIDLTVTETNEATGIFEGTVFFTTLDESSGHRLRVSEGDTVTAEYEDNTLPDPYTTADELDITATSLIGTVVPPLERAPAANLRTVDAFGNSLDSVSVDQQVQISADLANGQDREQSFAYLVQIQDANGVTVSLAWITGSLSSGQSFSPALSWIPTEAGTYTATAFVWESVDNPTALSPPVSTTVNVS
modifications: 17 N-glycans per monomer on asparagine residues followed by a threonine or serine at the +2 position (positions not given)
For B1, which “stoichiometry N” value is on record?
Its value is 6.
